Literature values in article PMC12672491.
Like-named read-outs stand apart in the source and are kept apart here.

Legend:
[1] = biological target: importin-α3 (Homo sapiens) (UniProt O00629)
[2] = biological target: importin-α3 (Homo sapiens) (UniProt O00629); remark: listed apart in the source

UniProt O00629, sequence (O00629 2-521): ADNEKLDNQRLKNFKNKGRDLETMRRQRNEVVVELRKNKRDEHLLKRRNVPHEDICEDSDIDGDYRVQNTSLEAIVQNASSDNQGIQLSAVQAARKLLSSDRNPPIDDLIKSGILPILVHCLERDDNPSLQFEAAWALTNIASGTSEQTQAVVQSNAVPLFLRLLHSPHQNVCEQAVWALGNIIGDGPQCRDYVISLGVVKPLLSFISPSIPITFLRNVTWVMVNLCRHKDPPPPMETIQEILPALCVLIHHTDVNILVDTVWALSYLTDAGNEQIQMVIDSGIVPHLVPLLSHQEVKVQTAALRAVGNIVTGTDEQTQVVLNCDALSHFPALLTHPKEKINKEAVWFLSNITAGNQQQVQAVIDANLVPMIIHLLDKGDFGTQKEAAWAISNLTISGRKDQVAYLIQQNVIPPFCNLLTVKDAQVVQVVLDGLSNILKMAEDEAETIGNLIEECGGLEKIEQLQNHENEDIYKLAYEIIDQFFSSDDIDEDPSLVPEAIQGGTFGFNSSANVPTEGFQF

Kd [1]: 2.1 µM
Kd [2]: 0.8 µM
Substance: Snail (from UniProt O95863)
